Data published in US20150098933.

Assays:
[1] = biological target: T1, ekLAL (rhLAL containing the FLAG affinity and ek cleavage site, designed to give TLAL-K76), produced in HEK293 cells
T1 chain: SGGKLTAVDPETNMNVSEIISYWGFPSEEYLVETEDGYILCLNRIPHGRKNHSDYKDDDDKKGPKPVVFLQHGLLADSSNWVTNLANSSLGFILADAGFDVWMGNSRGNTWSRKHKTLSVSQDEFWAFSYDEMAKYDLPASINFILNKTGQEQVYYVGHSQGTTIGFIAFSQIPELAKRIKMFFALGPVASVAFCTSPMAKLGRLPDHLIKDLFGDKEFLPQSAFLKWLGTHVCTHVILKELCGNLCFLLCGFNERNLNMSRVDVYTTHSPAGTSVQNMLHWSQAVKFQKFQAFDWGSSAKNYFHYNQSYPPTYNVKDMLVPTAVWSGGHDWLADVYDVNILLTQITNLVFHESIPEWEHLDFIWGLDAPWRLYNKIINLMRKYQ

[2] = biological target: T2, full-length rhLAL produced in HEK293 cells
T2 chain: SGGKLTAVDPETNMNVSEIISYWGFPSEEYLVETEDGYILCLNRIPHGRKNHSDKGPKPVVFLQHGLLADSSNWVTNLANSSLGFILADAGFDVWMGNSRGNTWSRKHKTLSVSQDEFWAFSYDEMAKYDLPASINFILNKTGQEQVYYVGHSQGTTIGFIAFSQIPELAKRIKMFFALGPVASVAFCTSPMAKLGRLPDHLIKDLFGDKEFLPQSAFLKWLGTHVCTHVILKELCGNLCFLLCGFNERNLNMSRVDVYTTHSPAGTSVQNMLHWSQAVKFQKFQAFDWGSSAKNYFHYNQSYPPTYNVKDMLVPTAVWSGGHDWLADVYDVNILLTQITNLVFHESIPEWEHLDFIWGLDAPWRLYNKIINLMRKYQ

[3] = biological target: T3, ekLAL (rhLAL containing the FLAG affinity and ek cleavage site, designed to give TLAL-G77), produced in HEK293 cells
T3 chain: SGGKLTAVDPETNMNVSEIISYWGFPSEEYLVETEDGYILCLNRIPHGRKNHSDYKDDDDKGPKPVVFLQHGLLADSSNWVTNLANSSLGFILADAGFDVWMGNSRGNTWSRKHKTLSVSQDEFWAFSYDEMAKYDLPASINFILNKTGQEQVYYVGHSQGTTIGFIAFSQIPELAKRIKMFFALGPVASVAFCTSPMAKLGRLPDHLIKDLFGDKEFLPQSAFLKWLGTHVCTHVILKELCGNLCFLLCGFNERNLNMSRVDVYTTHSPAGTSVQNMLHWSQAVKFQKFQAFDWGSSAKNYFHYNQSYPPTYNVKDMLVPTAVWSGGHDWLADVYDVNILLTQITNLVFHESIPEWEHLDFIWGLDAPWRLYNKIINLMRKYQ

[4] = biological target: T4, rhLAL protein produced from transgenic chicken
T4 chain: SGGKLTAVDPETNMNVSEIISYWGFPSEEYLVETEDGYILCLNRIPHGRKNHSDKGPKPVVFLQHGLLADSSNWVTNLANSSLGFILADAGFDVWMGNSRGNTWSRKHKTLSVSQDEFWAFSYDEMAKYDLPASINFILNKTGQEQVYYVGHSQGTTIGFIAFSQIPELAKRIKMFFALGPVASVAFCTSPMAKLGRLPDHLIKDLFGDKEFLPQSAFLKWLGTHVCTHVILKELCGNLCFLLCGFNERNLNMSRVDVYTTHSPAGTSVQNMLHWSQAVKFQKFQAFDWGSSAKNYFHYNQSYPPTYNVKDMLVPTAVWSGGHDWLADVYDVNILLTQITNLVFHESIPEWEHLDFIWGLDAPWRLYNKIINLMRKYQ

B1: bovine enterokinase (EC 3.4.21.9) (protein)
chain: IVGGSDSREGAWPWVVALYFDDQQVCGASLVSRDWLVSAAHCVYGRNMEPSKWKAVLGLHMASNLTSPQIETRLIDQIVINPHYNKRRKNNDIAMMHLEMKVNYTDYIQPICLPEENQVFPPGRICSIAGWGALIYQGSTADVLQEADVPLLSNEKCQQQMPEYNITENMVCAGYEAGGVDSCQGDSGGPLMCQENNRWLLAGVTSFGYQCALPNRPGVYARVPRFTEWIQSFLH
[1]
  proteolytic cleavage (ek digestion, 6 days at room temperature): >70% cleavage into TLAL-K76
[2]
  proteolytic cleavage (molecular weight before and after ek digestion): non-specific ek cleavage did not occur during the digestion reaction
[3]
  proteolytic cleavage (ek digestion, 6 days at room temperature, SDS-PAGE): approximately 50% cleavage into TLAL-G77
[4]
  proteolytic cleavage (molecular weight before and after ek digestion): non-specific ek cleavage did not occur during the digestion reaction
